Tests used:
[1] = target: 新型冠状病毒Omicron突变株Spike RBD蛋白 (新型冠状病毒Omicron突变株 (SARS-CoV-2 Omicron …, UniProt P0DTC2 319-537))
[2] = target: T1, 新型冠状病毒Alpha突变株Spike RBD蛋白 (新型冠状病毒Alpha突变株 (SARS-CoV-2 Alpha …, UniProt P0DTC2 319-537)); test: ELISA binding experiment (Fig. 3)
T1 construct: domain: Spike RBD; also called Alpha SPIKE RBD蛋白

[3] = target: T2, 新型冠状病毒Delta突变株Spike RBD蛋白 (新型冠状病毒Delta突变株 (SARS-CoV-2 Delta …, UniProt P0DTC2 319-537)); test: ELISA binding experiment (Fig. 3)
T2 construct: domain: Spike RBD; also called Delta SPIKE RBD蛋白

[4] = target: T3, 新型冠状病毒Gamma突变株Spike RBD蛋白 (新型冠状病毒Gamma突变株 (SARS-CoV-2 Gamma …, UniProt P0DTC2 319-537)); test: ELISA binding experiment (Fig. 3)
T3 construct: domain: Spike RBD; also called Gamma SPIKE RBD蛋白

[5] = target: T4, 新型冠状病毒Beta突变株Spike RBD蛋白 (新型冠状病毒Beta突变株 (SARS-CoV-2 Beta variant), UniProt P0DTC2 319-537); test: ELISA binding experiment (Fig. 3)
T4 construct: domain: Spike RBD; also called Beta SPIKE RBD蛋白

[6] = target: T1, 新型冠状病毒Alpha突变株Spike RBD蛋白; test: indirect ELISA, RBD coated at 2 μg/mL
[7] = target: T2, 新型冠状病毒Delta突变株Spike RBD蛋白; test: indirect ELISA, RBD coated at 2 μg/mL
[8] = target: T3, 新型冠状病毒Gamma突变株Spike RBD蛋白; test: indirect ELISA, RBD coated at 2 μg/mL
[9] = target: T4, 新型冠状病毒Beta突变株Spike RBD蛋白; test: indirect ELISA, RBD coated at 2 μg/mL

| Binder | Kd [1] [nM] | binding result [2] | binding result [3] | binding result [4] | binding result [5] | binding result [6] | binding result [7] | binding result [8] | binding result [9] |
| --- | --- | --- | --- | --- | --- | --- | --- | --- | --- |
| 克隆号为3A7C12的抗体 (antibody, V domains shown, also called 3A7C12克隆号抗体) VH: EVQLVESGGGLVKPGGSLRLSCAASGFTFSSYSMNWVRQAPGKGLEWVSSISSGSSYIYFADSVKGRFTISRDNAKNSLFLQMNSLRAEDTATYYCARAPLGYDSSGYFTMYYFDYWGQGTLVTVSS VL: not shown | 9.07 | no binding | no binding | no binding | no binding |  |  |  |  |
| 克隆号为1B12G6的抗体 (antibody, V domains shown) VH: QVQLVQSGAEVKKPGSSVKVSCKASGGTFSSYTISWVRQAPGQGLEWLGRIIPILNIANYAQKFQGRVTITADKSTSTAYMELSSLRSEDTAVYYCARDGRASGLGATHYFDYWGQGTLVTVSS VL: QSVLTQPPSVSGAPGQRVTISCTGSSSNIGAGYNVHWYQQLPGTAPKLLIYGNSNRPSGVPDRFSGSKSGTSASLAITGLQAEDEADYYCQSYDSSLSGSVFGGGTKLTVL |  |  |  |  |  | no binding (tested: 1 μg/mL) | no binding (tested: 1 μg/mL) | no binding (tested: 1 μg/mL) | no binding (tested: 1 μg/mL) |
| 克隆号为3C6E1的抗体 (antibody, V domains shown) VH: EVQLVESGGGLIQPGGSLGLSCAASGFTVSSNYMSWVRQAPGRGLEWVSVIYGGGSTTYADSVKGRFTISRDNSKNTLNLQMNSLRAEDTAVYYCARGGRFLHVFDIWGQGTVVTVSS VL: QSALTQPASVSGSPGQSITISCTGTSSDIGGYNYVSWYQQHPGKAPKLMIYDVTKRPSGVSNRFSGSKSGNTASLTISGLQAEDEADYHCSSYTSSSTRWVFGGGTKLTVL |  |  |  |  |  | no binding (tested: 1 μg/mL) | no binding (tested: 1 μg/mL) | no binding (tested: 1 μg/mL) | no binding (tested: 1 μg/mL) |
| 克隆号为9A5C5的抗体 (antibody, V domains shown) VH: EVQLQQSGPELVKPGASVKISCKTSGYTFTEYTMHWVKQSHGKSLEWIGGINPNNGGTTYNQKFKGKATLTVDKSSSTAYMELRSLTSEDSAVYYCARDGYSFFDYWGQGTTLTVSS VL: DIVLTQSPASLAVSLGQRATISCRASKSVSTSGYSYMHWYQQKPGQPPKLLIYLASNLESGVPARFSGSGSGTDFTLNIHPVEEEDAATYYCQHSRELFTFGSGTKLEIK |  |  |  |  |  | no binding (tested: 1 μg/mL) | no binding (tested: 1 μg/mL) | no binding (tested: 1 μg/mL) | no binding (tested: 1 μg/mL) |
